# Test results: US20080274118A1 (Novartis, published 2008)
# Tests used:
# [1] = biological target: T1, human CD40, cell-surface (on human B cells, monocytes and other CD40-expressing cells) (human, UniProt P25942 20-277); experiment: cell-based or functional assay
# [2] = biological target: T1, human CD40, cell-surface (on human B …); experiment: cell-based or functional assay; remark: listed apart in the source
# [3] = biological target: T2, human CD40, soluble or recombinant (ELISA, Biacore) (human, UniProt P25942 21-193, limits assumed); experiment: Biacore (method named in paragraph 140)
# T2 construct: also called soluble CD40; recombinant CD40
# T2 sequence (P25942 21-193 limits assumed): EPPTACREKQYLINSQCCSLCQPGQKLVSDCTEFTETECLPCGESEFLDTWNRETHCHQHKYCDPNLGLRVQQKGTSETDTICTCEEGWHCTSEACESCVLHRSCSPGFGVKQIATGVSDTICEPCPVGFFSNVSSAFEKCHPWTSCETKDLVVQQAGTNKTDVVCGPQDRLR
# T1 sequence (P25942 20-277): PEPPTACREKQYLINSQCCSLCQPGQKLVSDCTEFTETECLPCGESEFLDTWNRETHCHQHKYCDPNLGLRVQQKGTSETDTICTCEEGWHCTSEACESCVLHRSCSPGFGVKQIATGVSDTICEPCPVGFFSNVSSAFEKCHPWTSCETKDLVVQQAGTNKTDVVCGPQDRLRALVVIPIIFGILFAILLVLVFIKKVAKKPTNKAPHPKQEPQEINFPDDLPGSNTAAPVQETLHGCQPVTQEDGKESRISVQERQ
binder,measurement,setting,value
CD40L on formaldehyde-fixed transfected CHO cells (ligand) MIETYNQTSPRSAATGLPISMKIFMYLLTVFLITQMIGSALFAVYLHRRLDKIEDERNLHEDFVFMKTIQRCNTGERSLSLLNCEEIKSQFEGFVKDIMLNKEETKKENSFEMQKGDQNPQIAAHVISEASSKTTSVLQWAEKGYYTMSNNLVTLENGKQLTVKRQGLYYIYAQVTFCSNREASSQAPFIASLCLKSPGRFERILLRAANTHSSAKPCGQQSIHLGGVFELQPGASVFVNVTDPSQVSHGTGFTSFGLLKL,"MCP-1 secretion, normal B cells, Donor 1 (folds of induction over background)",[1],5.5 fold
same,"MCP-1 secretion, normal B cells, Donor 3 (folds of induction over background)",[1],1.7 fold
same,"MIP-1beta secretion, normal B cells, Donor 1 (folds of induction over background)",[1],2.2 fold
same,"MIP-1beta secretion, normal B cells, Donor 2 (folds of induction over background)",[1],2.6 fold
same,"MIP-1beta secretion, normal B cells, Donor 3 (folds of induction over background)",[1],17.8 fold
same,"hIL-6 secretion, normal B cells, Donor 1 (folds of induction over background)",[1],5.7 fold
same,"hIL-6 secretion, normal B cells, Donor 2 (folds of induction over background)",[1],3.8 fold
same,"hIL-6 secretion, normal B cells, Donor 3 (folds of induction over background)",[1],20.5 fold
same,"hIL-8 secretion, normal B cells, Donor 1 (folds of induction over background)",[1],7.7 fold
same,"hIL-8 secretion, normal B cells, Donor 2 (folds of induction over background)",[1],14.7 fold
same,"hIL-8 secretion, normal B cells, Donor 3 (folds of induction over background)",[1],49.3 fold
same,"hIL-10 secretion, normal B cells, Donor 1 (folds of induction over background)",[1],3.6 fold
same,"hIL-10 secretion, normal B cells, Donor 3 (folds of induction over background)",[1],3.6 fold
same,"hTNF-alpha secretion, normal B cells, Donor 1 (folds of induction over background)",[1],3.7 fold
same,"hTNF-alpha secretion, normal B cells, Donor 2 (folds of induction over background)",[1],4.8 fold
same,"hTNF-alpha secretion, normal B cells, Donor 3 (folds of induction over background)",[1],22.8 fold
same,"MCP-1 secretion, monocytes, Donor 1 (folds of induction over background)",[2],290 fold
same,"MIP-1beta secretion, monocytes, Donor 1 (folds of induction over background)",[2],162 fold
same,"hIL6 secretion, monocytes, Donor 1 (folds of induction over background)",[2],77.9 fold
same,"hIL8 secretion, monocytes, Donor 1 (folds of induction over background)",[2],124 fold
same,"hIL-10 secretion, monocytes, Donor 1 (folds of induction over background)",[2],4.2 fold
same,"hTNF-alpha secretion, monocytes, Donor 1 (folds of induction over background)",[2],13.8 fold
"CHIR-5.9 fully human anti-CD40 monoclonal antibody (antibody, V domains shown, also called mAb CHIR-5.9; 131.2F8.5.9) VH: EVQLVQSGAEVKKPGESLKISCKGSGYSFTSYWIGWVRQMPGKGLEWMGIIYPGDSDTRYSPSFQGQVTISADKSISTAYLQWSSLKASDTAMYYCARGTAAGRDYYYYYGMDVWGQGTTVTVSS VL: AIVMTQPPLSSPVTLGQPASISCRSSQSLVHSDGNTYLNWLQQRPGQPPRLLIYKFFRRLSGVPDRFSGSGAGTDFTLKISRVEAEDVGVYYCMQVTQFPHTFGQGTRLEIKR",Kd,[3],12 nM
"CHIR-12.12 fully human anti-CD40 monoclonal antibody (antibody, V domains shown, also called 153.8E2.D10.D6.12.12) VH: QVQLVESGGGVVQPGRSLRLSCAASGFTFSSYGMHWVRQAPGKGLEWVAVISYEESNRYHADSVKGRFTISRDNSKITLYLQMNSLRTEDTAVYYCARDGGIAAPGPDYWGQGTLVTVSS VL: DIVMTQSPLSLTVTPGEPASISCRSSQSLLYSNGYNYLDWYLQKPGQSPQVLISLGSNRASGVPDRFSGSGSGTDFTLKISRVEAEDVGVYYCMQARQTPFTFGPGTKVDIRR",Kd,[3],0.5 nM
